Test [1] deals with trimerization domain (TD) of human collagen XVIII, XVIII(TD) (human) (UniProt P39060). As to the kind of experiment: AUC.
Test [2] has the same target. As to the kind of experiment: cross-linking.
Test [3] addresses trimerization domain of human type XV collagen, XV(TD) (human). In words: SEC. (In gel filtration, larger molecules generally elute earlier.)

What is called stoichiometry N is the number of molecules, sites or subunits per partner or assembly. In the case of “trimerization domain (TD) of human collagen XVIII, XVIII(TD) (from UniProt P39060 1442-1496) (domain or fragment)”, the figures for the stoichiometry N in test [1] and in test [2] were 2.98 and 3, respectively.

As for “trimerization domain of human type XV collagen, XV(TD) (domain or fragment)”, the stoichiometry N in test [3] was found to be 3.

The values are drawn from PMC3048825.
